The target in assay [1] is human TIGIT-His protein (extracellular domain of human TIGIT fused to His tag) (human) (UniProt Q495A1). Put plainly: SPR, Biacore T200; antibody captured on anti-mouse IgG, human TIGIT-His as analyte; 1:1 Langmuir fit.
For assay [2], the target named is human TIGIT expressed on cells (CHO-K1 transfectants; Jurkat over-expressing human TIGIT) (human) (UniProt Q495A1). Nature of the assay: cell-based or functional assay.

pKd: −log10 of the molar value.

A word on the pKd: it is the Kd on a negative log10 scale, so that one unit is a factor of ten. A lower pKd goes with a large Kd.

Chain of human TIGIT-His protein (extracellular domain of human TIGIT fused to His tag) (human) (Q495A1 25-141 limits assumed): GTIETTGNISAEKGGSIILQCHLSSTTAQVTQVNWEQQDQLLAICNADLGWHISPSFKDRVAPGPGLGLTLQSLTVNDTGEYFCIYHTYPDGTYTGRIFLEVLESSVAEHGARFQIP
Chain of human TIGIT expressed on cells (CHO-K1 transfectants; Jurkat over-expressing human TIGIT) (human) (Q495A1 25-244): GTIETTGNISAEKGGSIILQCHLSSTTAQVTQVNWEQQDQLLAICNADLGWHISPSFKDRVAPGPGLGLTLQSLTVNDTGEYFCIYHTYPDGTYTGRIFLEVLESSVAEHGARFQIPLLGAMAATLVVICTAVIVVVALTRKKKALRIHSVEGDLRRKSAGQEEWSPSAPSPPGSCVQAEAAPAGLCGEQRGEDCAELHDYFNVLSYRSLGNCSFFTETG

For the substance “commercial anti-hTIGIT antibody, clone MBSA43 (eBioscience Cat#12-9500-42)”, in assay [1], the negative logarithm of the Kd (pKd) was 10.44. In assay [2], this substance showed an EC50, rescue of IL-2 in hTIGIT-Jurkat / THP-1 co-culture with CD155-Fc or CD112-Fc of 0.23 µg/mL.

The values above are taken from patent publication US20180371083A1.
